Article PMC10891134, “Bacteria employ lysine acetylation of transcriptional regulators to adapt gene expression to cellular metabolism” (Nature Communications, 2024)

Biological target: T1, RutR WT (UniProt P0ACU2 1-212)
T1 sequence: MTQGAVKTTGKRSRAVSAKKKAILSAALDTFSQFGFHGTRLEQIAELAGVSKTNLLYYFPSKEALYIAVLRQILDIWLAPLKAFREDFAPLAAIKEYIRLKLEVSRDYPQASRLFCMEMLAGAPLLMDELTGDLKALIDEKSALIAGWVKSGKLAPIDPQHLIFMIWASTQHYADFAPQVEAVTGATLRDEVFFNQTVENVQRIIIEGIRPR
Assay: SPR; ITC: 100 mM potassium phosphate pH 6.4, 150 mM NaCl, 5 mM MgCl2, 2 mM b-ME, 20 or 25 C; SPR: 100 mM potassium phosphate pH 6.4, 300 mM NaCl, 0.05% Tween20, 25 C; EMSA: 20 mM Tris-HCl pH 7.5, 100 mM KCl, 2 mM DTT, 10% glycerol, 25 nM DNA, 30 C
Conditions: protein: recombinant; tags: His6; chain copies: 2; blunt

B1: biotin-boxrutA (dsDNA)
DNA 1: GTTTTATGTGCAACTGTTTTGACCGTTTAGTCCACTTTTTACCAGATATTTTAG
DNA 2: CTAAAATATCTGGTAAAAAGTGGACTAAACGGTCAAAACAGTTGCACATAAAAC
Kd: 4.27 ± 1.19 nM
